The text below walks through data of paper PMC10989752, “LipR functions as an intracellular pH regulator in Bacillus thuringiensis under glucose conditions”.

For the data set, the target named is T1, LipR (Bacillus thuringiensis BMB171, UniProt A0A0G3DYA8 1-337).
T1 sequence: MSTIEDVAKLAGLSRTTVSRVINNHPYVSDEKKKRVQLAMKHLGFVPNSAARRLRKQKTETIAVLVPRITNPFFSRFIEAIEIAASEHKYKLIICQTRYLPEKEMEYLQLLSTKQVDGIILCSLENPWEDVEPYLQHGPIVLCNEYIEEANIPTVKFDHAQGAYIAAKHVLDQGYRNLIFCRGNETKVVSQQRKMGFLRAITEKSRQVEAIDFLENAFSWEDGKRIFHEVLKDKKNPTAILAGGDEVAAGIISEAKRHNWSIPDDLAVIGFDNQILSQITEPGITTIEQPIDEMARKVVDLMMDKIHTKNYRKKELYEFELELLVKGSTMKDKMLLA
Briefly: EMSA; LipR: 25 mM Tris pH 8.5-9, 150 mM NaCl, 10% glycerol; CcpA/AbrB: 50 mM Tris-HCl pH 7.5, 10 mM MgCl2, 1 mM DTT, 100 mM NaCl; 28 C, 25 min, 10 ul; 500 ng poly(dI-dC) when needed; 6% native PAGE, 0.5x TBE. Particulars: protein: recombinant, tags: C-terminal His (pET-28a), chain copies: 2.

B1: D6 (dsDNA)
DNA 1: CAATTTAAGAAAACGTTTTCATG
DNA 2: CATGAAAACGTTTTCTTAAATTG
For the molecule B1, the binding result is reported as “binds”.

B2: 18-bp minimal LipR site (dsDNA)
DNA 1: TAAGAAAACGTTTTCATG
DNA 2: CATGAAAACGTTTTCTTA
Turning to B2, the binding result (blunt) is “binds”.

B3: 30-bp footprint fragment (dsDNA)
DNA 1: ATATAATCAATTTAAGAAAACGTTTTCATG
DNA 2: CATGAAAACGTTTTCTTAAATTGATTATAT
As for B3, the binding result was “binds”.
